Where a chain is given by its changes, count along the chain named.
Tests used:
Conditions in all cases: both partners purified
[1] = molecular target: SARS-CoV-2 Omicron BA.1 spike receptor-binding domain (SARS-CoV-2 Omicron BA.1, S371L | S373P | S375F | Q493R | Q498R | N501Y | Y505H); test: BLI; Octet Red; […] (20 ug/ml) […]; kinetics buffer 1x PBS pH 7.4, 0.01% BSA, 0.002% Tween 20; 1:1 binding model
[2] = molecular target: SARS-CoV-2 Omicron BA.5 spike receptor-binding domain (SARS-CoV-2 Omicron BA.5, S375F | D405N | N501Y | Y505H); test: crystal structure
[3] = molecular target: SARS-CoV-2 Omicron JN.1 spike receptor-binding domain (SARS-CoV-2 Omicron JN.1, strain); test: BLI; Octet Red; […] (20 ug/ml) […]; kinetics buffer 1x PBS pH 7.4, 0.01% BSA, 0.002% Tween 20; 1:1 binding model
[4] = molecular target: SARS-CoV-2 Omicron BQ.1.1 spike receptor-binding domain (SARS-CoV-2 Omicron BQ.1.1, strain); test: as above
[5] = molecular target: SARS-CoV-2 Omicron XBB.1.5 spike receptor-binding domain (SARS-CoV-2 Omicron XBB.1.5, strain); test: as above

Measured: binding result

B1: ADI-77310 Fab (Fab, V domains shown)
VH: EVQLVESGGGLVKPGGSLRLSCAASGFTFGSYYMNWVRQAPGKGLEWVSSISEDGYSTYYPDSLKGRFTISRDSAKNSLYLQMNSLRADDTAVYYCARDFGGHTAWAGTGFTYWGQGTLVTVSS
VL: QSVLTQPPSVSGAPGQRITISCTGSSSNIGAGYDVHWYQQLPGTAPKLLIYGSSSRNSGVPDRFSGSKSGTSASLAITGLQAEDEADYYCQSYDSDLSVLYTFGTGTKVTVL
binds: [1]

B2: VYD222 Fab (Fab, V domains shown)
VH: B1 VH with Y33E, H103D
VL: B1 VL with S58Y, S98G
binds: all assays above

Reference: article doi:10.1101/2025.08.28.672883 (bioRxiv, 2025)
